# According to publication PMC11984735, “Dynamics of the adhesion complex of the human pathogens Mycoplasma pneumoniae and Mycoplasma genitalium” (PLOS Pathogens, 2025):
# B1: Fab fragment of monoclonal antibody P1/MCA4, with light chain L1 (Fab, V domains shown)
# VH: EVQLQQSGPELVKPGTSMKISCKASGYSFTGYTMNWVKQSHGKSLEWIGLINPYNGGTNYNQKFRGTATLTVDKSSSTAYMELLSLTSEDSAVYYCARSNYAYDLLMDYWGQGTSVTVSS
# VL: DVLMTQTPLSLPVSLGDQASISCRFSQTIVHSNGATYLEWYLQRPGQSPKLLIYKVSNRFSGVPDRFSGSGSGTDFTLKISRVEAEDLGVYYCFQGSHVPWTFGGGTKLEIK
# notes: LC600310 by the order of listing; here the papain fragment of the heavy chain; modelled in PDB 8ROR; light chain L1, the one seen in the cryo-EM map; The Fab preparation is a mixture of two Fabs with one heavy chain and two different light chains (roughly 70% for the most abundant); this molecule is the one with L1; also called Fab(P1/MCA4); P1/MCA4 Fab; source: papain digestion of monoclonal …
# B2: Fab fragment of monoclonal antibody P1/MCA4, with the second light chain (not L1) (Fab, V domains shown)
# VH: EVQLQQSGPELVKPGTSMKISCKASGYSFTGYTMNWVKQSHGKSLEWIGLINPYNGGTNYNQKFRGTATLTVDKSSSTAYMELLSLTSEDSAVYYCARSNYAYDLLMDYWGQGTSVTVSS
# VL: DVVMTQTPLTLSVTIGQPASISCKSSQSLLDSDGKTYLNCFLQRPGQSPNRLIYLVSRLDSGVPDRFTGSGSGTDFTLKISRVEAEDLGVYYCCQVTQWTFGGGTKLEIK
# notes: LC600310 by the order of listing; papain fragment; the second of the two light chains found in P1/MCA4 (not L1); Present in the same Fab preparation as m1; also called Fab(P1/MCA4); P1/MCA4 Fab; source: papain digestion of monoclonal antibody P1/MCA4 (hybridoma), purified (HiTrap Protein G, Superdex 75)
# Target: T1, P1 adhesin ectodomain (residues Thr29-Asp1521), Mycoplasma pneumoniae (M. pneumoniae, UniProt P11311)
# T1 construct: Adhesin P1 of Mycoplasma pneumoniae, gene MPN_141 (synthetic clone, Genscript), residues 29-1521; also called P1 (29-1521); whole P1 ectodomain; source: E. coli B834 (DE3), purified (HisTrap, Superdex 200)
# Assay: SEC-MALS; proteins mixed in solution (Fab and P1 ectodomain in equimolecular amounts; Mab with C-domain constructs); Superdex 200 10/300 GL with MALS and refractive index detectors
# Settings: both partners purified
# T1 sequence (P11311 29-1521): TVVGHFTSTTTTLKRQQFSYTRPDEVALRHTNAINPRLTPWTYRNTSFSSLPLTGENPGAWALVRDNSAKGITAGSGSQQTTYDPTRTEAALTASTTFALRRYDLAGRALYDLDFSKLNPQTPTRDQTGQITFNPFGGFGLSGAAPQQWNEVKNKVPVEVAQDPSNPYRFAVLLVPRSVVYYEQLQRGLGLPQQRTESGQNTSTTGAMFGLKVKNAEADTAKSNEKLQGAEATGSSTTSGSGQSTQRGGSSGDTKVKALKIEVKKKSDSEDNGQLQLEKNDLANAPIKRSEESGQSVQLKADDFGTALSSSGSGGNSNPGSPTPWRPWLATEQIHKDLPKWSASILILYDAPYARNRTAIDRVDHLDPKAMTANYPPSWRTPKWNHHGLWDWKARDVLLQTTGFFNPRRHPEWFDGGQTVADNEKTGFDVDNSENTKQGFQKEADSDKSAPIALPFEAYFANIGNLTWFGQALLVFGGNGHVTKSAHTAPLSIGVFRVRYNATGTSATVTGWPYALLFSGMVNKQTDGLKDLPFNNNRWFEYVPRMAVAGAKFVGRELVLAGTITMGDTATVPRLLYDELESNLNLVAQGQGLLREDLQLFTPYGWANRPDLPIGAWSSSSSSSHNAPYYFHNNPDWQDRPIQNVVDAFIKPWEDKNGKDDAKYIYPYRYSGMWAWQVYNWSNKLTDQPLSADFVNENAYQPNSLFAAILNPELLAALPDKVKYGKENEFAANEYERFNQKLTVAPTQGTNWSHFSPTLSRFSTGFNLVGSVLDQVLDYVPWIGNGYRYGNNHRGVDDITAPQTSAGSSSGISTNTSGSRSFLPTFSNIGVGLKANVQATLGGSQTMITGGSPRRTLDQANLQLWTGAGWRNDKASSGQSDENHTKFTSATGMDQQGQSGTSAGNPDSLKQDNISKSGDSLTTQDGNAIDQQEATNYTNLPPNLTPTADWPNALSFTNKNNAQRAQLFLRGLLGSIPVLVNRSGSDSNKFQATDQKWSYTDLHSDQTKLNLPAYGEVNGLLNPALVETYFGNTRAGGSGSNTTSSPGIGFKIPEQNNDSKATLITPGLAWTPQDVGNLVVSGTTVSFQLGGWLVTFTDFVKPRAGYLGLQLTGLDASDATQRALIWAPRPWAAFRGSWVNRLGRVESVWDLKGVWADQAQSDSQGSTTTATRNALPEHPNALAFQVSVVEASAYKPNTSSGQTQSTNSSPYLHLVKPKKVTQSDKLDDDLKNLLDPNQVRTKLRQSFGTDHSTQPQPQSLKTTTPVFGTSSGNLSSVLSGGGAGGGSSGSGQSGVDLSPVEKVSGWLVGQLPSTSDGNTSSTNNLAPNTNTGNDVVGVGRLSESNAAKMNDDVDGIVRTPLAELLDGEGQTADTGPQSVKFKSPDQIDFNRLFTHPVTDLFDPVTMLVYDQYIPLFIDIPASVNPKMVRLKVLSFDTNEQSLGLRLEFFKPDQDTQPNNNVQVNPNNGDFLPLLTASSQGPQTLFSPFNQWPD
row,Binder,binding result
1,B1,binds
2,B2,binds
